Consider five molecules from patent US20220098307A1 (WUHAN YZY BIOPHARMA, published 2022).

Substitutions are numbered along the chain they refer to. Names and notes keep the numbering of the source.

T1: Human BCMA (human, UniProt Q02223 1-54)
T1 sequence: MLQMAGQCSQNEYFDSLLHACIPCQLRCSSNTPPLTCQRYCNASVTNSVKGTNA

T2: human CEA (human, UniProt P06731 35-685)
T2 sequence: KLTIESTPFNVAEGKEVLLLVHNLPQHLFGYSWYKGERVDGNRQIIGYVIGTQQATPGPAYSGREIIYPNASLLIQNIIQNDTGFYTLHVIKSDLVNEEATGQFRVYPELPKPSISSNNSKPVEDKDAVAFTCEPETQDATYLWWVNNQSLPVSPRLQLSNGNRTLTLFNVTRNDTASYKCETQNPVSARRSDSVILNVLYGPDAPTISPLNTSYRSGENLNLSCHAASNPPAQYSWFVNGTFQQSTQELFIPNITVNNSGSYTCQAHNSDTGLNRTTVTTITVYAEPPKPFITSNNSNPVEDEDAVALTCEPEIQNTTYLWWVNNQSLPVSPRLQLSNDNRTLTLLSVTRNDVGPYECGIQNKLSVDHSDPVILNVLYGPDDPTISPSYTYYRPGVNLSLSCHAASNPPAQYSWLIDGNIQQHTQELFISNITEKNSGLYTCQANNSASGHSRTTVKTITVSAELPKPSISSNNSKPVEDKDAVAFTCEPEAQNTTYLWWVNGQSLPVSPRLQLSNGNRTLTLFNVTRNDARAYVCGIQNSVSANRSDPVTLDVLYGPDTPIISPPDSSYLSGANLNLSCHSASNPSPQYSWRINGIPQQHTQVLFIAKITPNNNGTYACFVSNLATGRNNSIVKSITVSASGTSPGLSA

B1: M2IC-WT (bispecific antibody, human IgG1, kappa)
chain: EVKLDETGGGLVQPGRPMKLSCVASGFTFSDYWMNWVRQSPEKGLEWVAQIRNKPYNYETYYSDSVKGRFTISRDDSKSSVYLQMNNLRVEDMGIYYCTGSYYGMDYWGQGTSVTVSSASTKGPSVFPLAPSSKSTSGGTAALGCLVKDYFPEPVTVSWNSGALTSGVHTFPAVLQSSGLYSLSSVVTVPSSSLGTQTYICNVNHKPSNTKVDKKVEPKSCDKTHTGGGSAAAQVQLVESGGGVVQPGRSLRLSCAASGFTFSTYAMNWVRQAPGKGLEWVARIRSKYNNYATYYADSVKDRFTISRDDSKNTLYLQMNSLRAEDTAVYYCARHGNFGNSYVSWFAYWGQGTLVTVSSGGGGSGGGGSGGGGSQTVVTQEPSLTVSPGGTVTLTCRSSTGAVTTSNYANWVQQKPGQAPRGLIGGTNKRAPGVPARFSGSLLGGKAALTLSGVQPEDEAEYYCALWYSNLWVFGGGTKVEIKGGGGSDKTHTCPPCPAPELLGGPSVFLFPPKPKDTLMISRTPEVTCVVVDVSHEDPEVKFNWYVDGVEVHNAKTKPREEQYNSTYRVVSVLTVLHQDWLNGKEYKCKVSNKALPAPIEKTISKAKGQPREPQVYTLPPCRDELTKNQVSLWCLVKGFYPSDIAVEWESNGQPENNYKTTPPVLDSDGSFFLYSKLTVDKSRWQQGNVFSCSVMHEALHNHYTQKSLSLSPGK
heavy: EVKLDETGGGLVQPGRPMKLSCVASGFTFSDYWMNWVRQSPEKGLEWVAQIRNKPYNYETYYSDSVKGRFTISRDDSKSSVYLQMNNLRVEDMGIYYCTGSYYGMDYWGQGTSVTVSSASTKGPSVFPLAPSSKSTSGGTAALGCLVKDYFPEPVTVSWNSGALTSGVHTFPAVLQSSGLYSLSSVVTVPSSSLGTQTYICNVNHKPSNTKVDKKVEPKSCDKTHTCPPCPAPELLGGPSVFLFPPKPKDTLMISRTPEVTCVVVDVSHEDPEVKFNWYVDGVEVHNAKTKPREEQYNSTYRVVSVLTVLHQDWLNGKEYKCKVSNKALPAPIEKTISKAKGQPREPQVCTLPPSRDELTKNQVSLSCAVKGFYPSDIAVEWESNGQPENNYKTTPPVLDSDGSFFLVSKLTVDKSRWQQGNVFSCSVMHEALHNRFTQKSLSLSPGK
light: DVVMTQTPLSLPVSLGDQASISCRSSQSLVHSNGNTYLRWYLQKPGQSPKVLIYKVSNRFSGVPDRFSGSGSGTDFTLKISRVEAEDLGVYFCSQSTHVPWTFGGGTKLEIKRTVAAPSVFIFPPSDEQLKSGTASVVCLLNNFYPREAKVQWKVDNALQSGNSQESVTEQDSKDSTYSLSSTLTLSKADYEKHKVYACEVTHQGLSSPVTKSFNRGEC
notes: structure 2 isotype control; CH2 WT
B2: M2IC-FES (bispecific antibody, human IgG1, kappa)
chain: EVKLDETGGGLVQPGRPMKLSCVASGFTFSDYWMNWVRQSPEKGLEWVAQIRNKPYNYETYYSDSVKGRFTISRDDSKSSVYLQMNNLRVEDMGIYYCTGSYYGMDYWGQGTSVTVSSASTKGPSVFPLAPSSKSTSGGTAALGCLVKDYFPEPVTVSWNSGALTSGVHTFPAVLQSSGLYSLSSVVTVPSSSLGTQTYICNVNHKPSNTKVDKKVEPKSCDKTHTGGGSAAAQVQLVESGGGVVQPGRSLRLSCAASGFTFSTYAMNWVRQAPGKGLEWVARIRSKYNNYATYYADSVKDRFTISRDDSKNTLYLQMNSLRAEDTAVYYCARHGNFGNSYVSWFAYWGQGTLVTVSSGGGGSGGGGSGGGGSQTVVTQEPSLTVSPGGTVTLTCRSSTGAVTTSNYANWVQQKPGQAPRGLIGGTNKRAPGVPARFSGSLLGGKAALTLSGVQPEDEAEYYCALWYSNLWVFGGGTKVEIKGGGGSDKTHTCPPCPAPEFEGGPSVFLFPPKPKDTLMISRTPEVTCVVVDVSHEDPEVKFNWYVDGVEVHNAKTKPREEQYNSTYRVVSVLTVLHQDWLNGKEYKCKVSNKALPASIEKTISKAKGQPREPQVYTLPPCRDELTKNQVSLWCLVKGFYPSDIAVEWESNGQPENNYKTTPPVLDSDGSFFLYSKLTVDKSRWQQGNVFSCSVMHEALHNHYTQKSLSLSPGK
heavy: B1 heavy with L235F, L236E, P332S
light: B1 light
notes: structure 2 isotype control; CH2 FES
B3: M2IC-NA (bispecific antibody, human IgG1, kappa, N297A)
chain: B2 chain with F501L, E502L, N564A, S598P
heavy: B1 heavy with N298A
light: B1 light
notes: structure 2 isotype control; CH2 N297A
B4: M2IC-AAG (bispecific antibody, human IgG1, kappa, L234A L235A)
chain: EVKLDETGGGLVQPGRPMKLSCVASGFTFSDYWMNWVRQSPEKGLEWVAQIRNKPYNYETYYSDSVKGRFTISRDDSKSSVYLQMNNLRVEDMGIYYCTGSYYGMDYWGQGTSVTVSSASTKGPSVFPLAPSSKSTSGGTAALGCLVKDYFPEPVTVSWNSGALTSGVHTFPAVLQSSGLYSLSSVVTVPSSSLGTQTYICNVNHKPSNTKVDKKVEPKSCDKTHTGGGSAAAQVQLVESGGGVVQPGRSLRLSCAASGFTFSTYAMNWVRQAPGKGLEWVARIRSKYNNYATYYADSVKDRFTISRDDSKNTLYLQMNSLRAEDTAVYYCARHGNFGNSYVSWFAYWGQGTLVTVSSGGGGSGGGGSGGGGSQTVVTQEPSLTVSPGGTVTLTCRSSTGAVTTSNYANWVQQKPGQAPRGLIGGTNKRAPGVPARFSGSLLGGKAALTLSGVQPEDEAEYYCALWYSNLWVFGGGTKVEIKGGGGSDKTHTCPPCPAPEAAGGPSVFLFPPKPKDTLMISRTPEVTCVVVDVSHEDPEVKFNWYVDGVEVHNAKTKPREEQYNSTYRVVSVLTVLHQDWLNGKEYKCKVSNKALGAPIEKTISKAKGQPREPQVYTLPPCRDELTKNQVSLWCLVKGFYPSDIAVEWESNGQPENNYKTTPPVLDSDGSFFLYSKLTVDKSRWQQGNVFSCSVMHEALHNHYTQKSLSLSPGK
heavy: B1 heavy with L235A, L236A, P330G
light: B1 light
notes: structure 2 isotype control; CH2 AAG
B5: CEA-M3-SG2 (bispecific antibody)
chain 1: QVQLVQSGSELKKPGASVKVSCKASGYTFTVFGMNWVRQAPGQGLEWMGWINTKTGEATYVEEFKGRFVFSLDTSVSTAYLQISSLKADDTAVYYCARWDFYDYVEAMDYWGQGTTVTVSSASTKGPSVFPLAPSSKSTSGGTAALGCLVKDYFPEPVTVSWNSGALTSGVHTFPAVLQSSGLYSLSSVVTVPSSSLGTQTYICNVNHKPSNTKVDKKVEPKSCGGGGSGGGGSQVQLVESGGGVVQPGRSLRLSCAASGFTFSTYAMNWVRQAPGKGLEWVARIRSKYNNYATYYADSVKDRFTISRDDSKNTLYLQMNSLRAEDTAVYYCARHGNFGNSYVSWFAYWGQGTLVTVSSASVAAPSVFIFPPSDEQLKSGTASVVCLLNNFYPREAKVQWKVDNALQSGNSQESVTEQDSKDSTYSLSSTLTLSKADYEKHKVYACEVTHQGLSSPVTKSFNRGECDKTHTCPPSPAPPVAGPSVFLFPPKPKDTLMISRTPEVTCVVVDVSHEDPEVQFNWYVDGVEVHNAKTKPREEQFNSTFRVVSVLTVVHQDWLNGKEYKCKVSNKGLPAPIEKTISKTKGQPREPQVYTLPPCRDELTKNQVSLWCLVKGFYPSDIAVEWESNGQPENNYKTTPPVLDSDGSFFLYSKLTVDKSRWQQGNVFSCSVMHEALHNHYTQKSLSLSPGK
chain 2: QTVVTQEPSLTVSPGGTVTLTCRSSTGAVTTSNYANWVQQKPGQAPRGLIGGTNKRAPGVPARFSGSLLGGKAALTLSGVQPEDEAEYYCALWYSNLWVFGGGTKVEIKSSASTKGPSVFPLAPSSKSTSGGTAALGCLVKDYFPEPVTVSWNSGALTSGVHTFPAVLQSSGLYSLSSVVTVPSSSLGTQTYICNVNHKPSNTKVDKKVEPKSC
heavy: QVQLVQSGSELKKPGASVKVSCKASGYTFTVFGMNWVRQAPGQGLEWMGWINTKTGEATYVEEFKGRFVFSLDTSVSTAYLQISSLKADDTAVYYCARWDFYDYVEAMDYWGQGTTVTVSSASTKGPSVFPLAPSSKSTSGGTAALGCLVKDYFPEPVTVSWNSGALTSGVHTFPAVLQSSGLYSLSSVVTVPSSSLGTQTYICNVNHKPSNTKVDKKVEPKSCDKTHTCPPSPAPPVAGPSVFLFPPKPKDTLMISRTPEVTCVVVDVSHEDPEVQFNWYVDGVEVHNAKTKPREEQFNSTFRVVSVLTVVHQDWLNGKEYKCKVSNKGLPAPIEKTISKTKGQPREPQVCTLPPSRDELTKNQVSLSCAVKGFYPSDIAVEWESNGQPENNYKTTPPVLDSDGSFFLVSKLTVDKSRWQQGNVFSCSVMHEALHNRFTQKSLSLSPGK
light: DIQMTQSPSSLSASVGDRVTITCKASQNVGTNVAWYQQKPGKAPKLLIYSASYRYSGVPSRFSGSGSGTDFTFTISSLQPEDIATYYCHQYYTYPLFTFGQGTKVEIKRTVAAPSVFIFPPSDEQLKSGTASVVCLLNNFYPREAKVQWKVDNALQSGNSQESVTEQDSKDSTYSLSSTLTLSKADYEKHKVYACEVTHQGLSSPVTKSFNRGEC
notes: structure 3 (fusion heavy chain, cross light chain, heavy, light; the light chain pairs with the heavy and with the fusion heavy chain); CEA x CD3; CH2 SG2CH2

One test deals with T3, Monkey CD3 (monkey).
T3 construct: whole, on cells; also called CD3 of monkey CD3 positive T cells
Kind of test: flow cytometry, monkey T cells. A general note: A flow cytometer gives signals particle by particle.
The term EC50 denotes the concentration giving half of the maximal effect. B1 returned a half-maximal effective concentration (EC50) of 540 nM.

For B2, the EC50 stood at 506 nM.

Turning to B3, it took 561 nM to reach a half-maximal effect (EC50).

B4: the 50% effective concentration (EC50) came out at 528 nM.

The next test has as its target T1, Human BCMA. Kind of test: flow cytometry, human tumor cells (table of the BCMA series). The text has this: 1) Cell preparation: T cells isolated from CD3-positive human whole blood were used for a CD3 end affinity detection of multifunctional antibody molecule; positive tumor cells of corresponding antigen were used for detecting affinity of tumor antigen; for example, CD38-positive MM. 1S cells (purchased from the Cell Resource Center of Shanghai Institutes for Biological Sciences, Chinese Academy of Sciences) or RPMI 8226 cells (purchased from the Cell Resource Center of Shanghai Institutes for Biological Sciences, Chinese Academy of Sciences) were used for CD38 antigen detection, and PD-L1 positive H358 cells (purchased from the Cell Resource Center of Shanghai Institutes for Biological Sciences, Chinese Academy of Sciences) were used for PD-L1 antigen detection, and so on. The cells were resuspended with 1% FBS-PBS, adjusted to a density of 4×10⁶/ml, and 50 μl of cells were taken from each well, and then plated at 2×10⁵ per well. Cell plating was operated on ice
2) Addition of the antibody: according to the experimental design, the antibody was diluted gradually, and dilution of antibody was operated on ice. For example, the initial concentration of antibody for dilution was 3000 nM, and the antibody was diluted by 3 times with 11 concentration gradients. The diluted antibody was added to a cell well at 50 μl per well, mixed well, and shaked and incubated at 4° C. 1100 rpm/min for 2 h; after washing, the cells were resuspend in 1% FBS-PBS, and a diluted secondary antibody PE anti-human IgG FC (Biolegend, 409304) was added with a final concentration of 8 ug/ml and a volume of 50 μl/well. At the same time, a well only added with cells and secondary antibody was set as a control, the components were mixed well, and incubated under shaking at 1100 rpm/min at 4° C. for 1 h;
5) Data analysis: the data was analyzed by a flow analysis software FlowJo 7.6 thereby obtaining an average fluorescence intensity of the specific antibody concentration, plotted by a Graphpad Prism 5 with the antibody concentration (nM) as an abscissa and the average fluorescence intensity as an ordinate; the EC50 value was calculated by the method of One site—Specific binding, and the EC50 value indicated the cell affinity of the antibody to the corresponding target antigen.
As to B1, the binding result is on record as “no binding”.

With B2, the binding result was “no binding”.

With B3, the binding result was “no binding”.

For the molecule B4, the binding result is recorded as “no binding”.

The next test has as its target T4, Human CD3ε (human, UniProt P07766 23-126).
T4 construct: CD3 on T cells isolated from human whole blood
Kind of test: flow cytometry, human T cells. The gist of the method:
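Cells expressing the target antigen (CD38+ MM.1S or RPMI 8226 for CD38; isolated T cells for CD3) were plated at 2×10⁵ per well in 1% FBS-PBS on ice. Antibody was titrated 3-fold over 11 points from 3000 nM and incubated 2 h at 4° C with shaking, followed by PE anti-human IgG Fc.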
B5: the concentration giving a half-maximal response (EC50) turned out to be 631 nM.

In turn, B1 had a concentration for a half-maximal effect (EC50) of 499 nM.

Consider B2, for which the 50% effective concentration (EC50) worked out at 411 nM.

As to B3, the EC50 turned out to be 547 nM.

Molecule B4 came in with a half-maximal effective concentration (EC50) of 515 nM.

The next test deals with T2, human CEA. Description: flow cytometry, human tumor cells (CEA+). In short, it runs like this:
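First, cells were plated on ice at 2×10⁵ per well; second, antibody dilutions (top 3000 nM, 3-fold steps) were added for 2 h at 4° C; third, after washing, PE anti-human IgG Fc (final 8 ug/ml) was added for 1 h at 4° C. EC50 was then fitted from MFI versus concentration.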
B5 came in with a concentration giving a half-maximal response (EC50) of 30.5 nM.
